Measurements as given in patent US10314894B2, “Treatment of cardio-renal disease using PCSK6” (THE CLEVELAND CLINIC FOUNDATION, priority 2014, dated 2019).

Tests used:
corin mutant S472G = molecular target: T1, corin mutant S472G (Homo sapiens, UniProt Q9Y5Q5, S472G); experiment: PCSK6-mediated corin activation in HEK293 cells, corin mutant S472G; format: cell-based; conditions: Western, densitometry
T1 construct: expressed in transfected cells; host or cells: HEK293
T1 sequence (Q9Y5Q5 1-1042 S472G): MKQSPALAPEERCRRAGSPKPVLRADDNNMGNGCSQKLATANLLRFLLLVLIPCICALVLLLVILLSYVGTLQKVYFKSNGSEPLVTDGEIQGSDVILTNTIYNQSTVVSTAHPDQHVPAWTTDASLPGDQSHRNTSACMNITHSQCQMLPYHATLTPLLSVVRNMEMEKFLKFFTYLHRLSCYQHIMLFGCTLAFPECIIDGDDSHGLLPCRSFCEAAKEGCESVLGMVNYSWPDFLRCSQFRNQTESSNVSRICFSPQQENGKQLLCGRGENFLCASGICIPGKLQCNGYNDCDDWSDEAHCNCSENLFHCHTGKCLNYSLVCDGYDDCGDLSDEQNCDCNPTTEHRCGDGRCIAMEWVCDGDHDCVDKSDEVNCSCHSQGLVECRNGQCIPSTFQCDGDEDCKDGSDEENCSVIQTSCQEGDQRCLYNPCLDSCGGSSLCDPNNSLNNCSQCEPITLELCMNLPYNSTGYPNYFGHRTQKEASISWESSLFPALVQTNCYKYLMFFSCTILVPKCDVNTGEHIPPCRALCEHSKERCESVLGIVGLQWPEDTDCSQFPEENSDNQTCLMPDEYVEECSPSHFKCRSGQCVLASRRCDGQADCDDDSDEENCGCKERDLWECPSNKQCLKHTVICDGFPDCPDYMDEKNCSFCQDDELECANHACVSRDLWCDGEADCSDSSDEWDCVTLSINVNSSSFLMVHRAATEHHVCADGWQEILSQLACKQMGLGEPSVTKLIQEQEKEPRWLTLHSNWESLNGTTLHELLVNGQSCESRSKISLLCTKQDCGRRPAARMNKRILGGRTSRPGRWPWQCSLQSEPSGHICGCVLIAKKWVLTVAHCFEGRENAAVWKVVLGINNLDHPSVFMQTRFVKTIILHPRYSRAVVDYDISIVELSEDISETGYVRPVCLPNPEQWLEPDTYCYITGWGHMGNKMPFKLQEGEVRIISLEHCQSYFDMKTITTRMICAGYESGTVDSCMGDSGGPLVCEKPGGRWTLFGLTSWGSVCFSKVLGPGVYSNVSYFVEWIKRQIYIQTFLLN
From the text: (§1) Plasmids expressing human corin WT and mutants R801A, S985A, T555I, Q568P, T555I/Q568P, K317E, S472G and R539C were reported previously. Dong, N. et al., J Biol Chem 289, 17909-17916 (2014); Knappe et al., J Biol Chem 278, 52363-52370 (2003); Wu et al., J Biol Chem 277, 16900-16905. (2002). Plasmids expressing human PCSK1-9 were made by cloning respective cDNAs into pcNDA3.1 vector. Recombinant corin and PCSK proteins encoded by these plasmids contained a C-terminal V5 or flag tag for protein detection in Western blotting.
(§2) HEK293 and HL-1 cells were transfected with corin or PCSK6 expression plasmids. After 48-72 h, cells were lysed in a buffer containing 25 mM Tris-HCl, pH 7.4, 150 mM NaCl, 1 mM EDTA, 1% (v/v) NP-40, and 1% (v/v) protease inhibitor cocktail. Recombinant corin and PCSK6 proteins were immunoprecipitated with an anti-V5 or anti-flag antibody. Western blotting was carried out to analyze corin expression and activation or PCSK6 expression with or without reducing agents. Percentage of corin activation (corin-p vs. corin fragments) was quantified by densitometric analysis of Western blots.

corin mutant R801A = molecular target: T2, corin mutant R801A (Homo sapiens, UniProt Q9Y5Q5, R801A); experiment: PCSK6-mediated corin activation in HEK293 cells, corin mutant R801A (control); format: cell-based; conditions: corin mutant R801A lacking the cleavage site
T2 construct: expressed in transfected cells; host or cells: HEK293
T2 sequence (Q9Y5Q5 1-1042 R801A): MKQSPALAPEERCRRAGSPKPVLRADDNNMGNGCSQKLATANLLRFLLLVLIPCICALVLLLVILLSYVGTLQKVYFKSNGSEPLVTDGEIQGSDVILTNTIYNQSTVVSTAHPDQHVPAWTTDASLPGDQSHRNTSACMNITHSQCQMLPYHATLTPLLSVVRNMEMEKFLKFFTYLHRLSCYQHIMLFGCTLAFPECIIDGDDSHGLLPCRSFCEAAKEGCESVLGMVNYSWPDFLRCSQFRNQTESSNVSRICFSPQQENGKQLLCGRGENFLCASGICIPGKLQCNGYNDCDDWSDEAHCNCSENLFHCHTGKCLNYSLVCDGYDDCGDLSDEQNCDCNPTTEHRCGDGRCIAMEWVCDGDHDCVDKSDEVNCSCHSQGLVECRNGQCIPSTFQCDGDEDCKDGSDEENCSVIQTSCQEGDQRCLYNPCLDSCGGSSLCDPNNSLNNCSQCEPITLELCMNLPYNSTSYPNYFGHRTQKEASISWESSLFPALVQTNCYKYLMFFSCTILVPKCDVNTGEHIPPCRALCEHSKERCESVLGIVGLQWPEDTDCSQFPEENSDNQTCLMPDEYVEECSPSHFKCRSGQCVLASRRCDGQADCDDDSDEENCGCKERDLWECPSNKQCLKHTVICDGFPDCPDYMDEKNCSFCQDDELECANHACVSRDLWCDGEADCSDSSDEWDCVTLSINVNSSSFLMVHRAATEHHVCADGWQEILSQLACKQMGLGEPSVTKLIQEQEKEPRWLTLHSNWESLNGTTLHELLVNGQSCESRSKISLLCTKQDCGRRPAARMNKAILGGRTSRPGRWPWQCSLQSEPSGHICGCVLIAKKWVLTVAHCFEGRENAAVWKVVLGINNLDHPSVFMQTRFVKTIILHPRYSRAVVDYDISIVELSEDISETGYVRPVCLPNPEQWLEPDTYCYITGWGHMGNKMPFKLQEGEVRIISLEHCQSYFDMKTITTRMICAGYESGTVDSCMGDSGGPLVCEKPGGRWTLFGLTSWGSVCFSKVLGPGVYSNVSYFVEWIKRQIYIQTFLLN
From the text: as §1, §2

reduction in PCSK6-mediated corin activation compared with WT corin (corin mutant S472G): 99%
PCSK6-mediated activation cleavage (corin mutant R801A): no activation cleavage was detected
B1: proprotein convertase subtilisin/kexin-6 (protein, listed as Homo sapiens)
chain: MPPRAPPAPGPRPPPRAAAATDTAAGAGGAGGAGGAGGPGFRPLAPRPWRWLLLLALPAACSAPPPRPVYTNHWAVQVLGGPAEADRVAAAHGYLNLGQIGNLEDYYHFYHSKTFKRSTLSSRGPHTFLRMDPQVKWLQQQEVKRRVKRQVRSDPQALYFNDPIWSNMWYLHCGDKNSRCRSEMNVQAAWKRGYTGKNVVVTILDDGIERNHPDLAPNYDSYASYDVNGNDYDPSPRYDASNENKHGTRCAGEVAASANNSYCIVGIAYNAKIGGIRMLDGDVTDVVEAKSLGIRPNYIDIYSASWGPDDDGKTVDGPGRLAKQAFEYGIKKGRQGLGSIFVWASGNGGREGDYCSCDGYTNSIYTISVSSATENGYKPWYLEECASTLATTYSSGAFYERKIVTTDLRQRCTDGHTGTSVSAPMVAGIIALALEANSQLTWRDVQHLLVKTSRPAHLKASDWKVNGAGHKVSHFYGFGLVDAEALVVEAKKWTAVPSQHMCVAASDKRPRSIPLVQVLRTTALTSACAEHSDQRVVYLEHVVVRTSISHPRRGDLQIYLVSPSGTKSQLLAKRLLDLSNEGFTNWEFMTVHCWGEKAEGQWTLEIQDLPSQVRNPEKQGKLKEWSLILYGTAEHPYHTFSAHQSRSRMLELSAPELEPPKAALSPSQVEVPEDEEDYTAQSTPGSANILQTSVCHPECGDKGCDGPNADQCLNCVHFSLGSVKTSRKCVSVCPLGYFGDTAARRCRRCHKGCETCSSRAATQCLSCRRGFYHHQEMNTCVTLCPAGFYADESQKNCLKCHPSCKKCVDEPEKCTVCKEGFSLARGSCIPDCEPGTYFDSELIRCGECHHTCGTCVGPGREECIHCAKNFHFHDWKCVPACGEGFYPEEMPGLPHKVCRRCDENCLSCAGSSRNCSRCKTGFTQLGTSCITNHTCSNADETFCEMVKSNRLCERKLFIQFCCRTCLLAG
modifications: C-terminal FLAG tag
